“Also recorded” adds a separate entry of the source.
Experiments:
plasminogen [1] = target: T1, plasminogen (Homo sapiens, UniProt P00747); assay: Reactivity of peptide library with plasminogen, Dot-Blot method; format: binding; conditions: peptide immobilized on nitrocellulose film; HRP-labeled anti-plasminogen antibody; DAB staining
Source text: FIG. 11 is a photograph after staining with DAB reagent in a Dot-Blot measurement, for detecting the binding between each of the peptide 1 to peptide 8 and plasminogen. The numbers 1 to 8 in FIG. 11 indicate the locations at which peptide solutions of the peptide 1 to peptide 8 were dropped, respectively, and P indicates the locations at which plasminogen solutions (positive control) were dropped.
(§1) A peptide library of peptides 1 to 8 (SEQ ID NOs: 10 to 17), which are divided peptides obtained from a 35-residue sequence of 254th to 288th residues (FIG. 2) of the amino acid sequence of the parasite enolase, was used. Each of the peptides of the peptide library was allowed to react with plasminogen using a Dot-Blot method and an ELISA method, thereby carrying out a search for an amino acid sequence recognized by plasminogen.
The reactivity of the peptides was measured by a Dot-Blot method, using a 10% acetonitrile solution of each of 8 types of peptides, peptide 1 to peptide 8, by the following steps in the following order; (a) immobilization of each peptide on a nitrocellulose film (pore size: 0.45 μm); (b) reaction with plasminogen in a plasminogen solution; (c) reaction with an HRP-labeled anti-plasminogen antibody; and (d) DAB staining.

plasminogen [2] = target: T1, plasminogen; assay: Reactivity of peptide library with plasminogen, ELISA method; format: binding; conditions: peptide immobilized in wells; plasminogen 1 μg/well; HRP modified anti-plasminogen antibody, TMB staining
Description: FIG. 12 is a photograph of a plate after staining with TMB reagent in an ELISA measurement, for detecting the binding between each of the peptide 1 to peptide 8 and plasminogen. Each of the peptide 1 to peptide 8 was immobilized in each of the wells of the plate, and then allowed to react with plasminogen. Detection of binding was carried out by staining with an HRP modified-anti-plasminogen antibody and TMB reagent.
FIG. 13 is a graph of absorbance data (at 450 nm) taken after staining with TMB in an ELISA measurement, for detecting the binding between each of the peptide 1 to peptide 8 and plasminogen (plasminogen concentration: 1 μg/well).
as §1
Next, in order to digitize and quantify the reaction of the peptide library with plasminogen, the detection of binding by an ELISA method was carried out.

P. falciparum = assay: Vaccine trial in owl monkeys; format: in vivo; conditions: 13 owl monkeys, vaccinated
Description: Subsequently, a vaccine trial was carried out using as antigens enolase derived from P. falciparum and an AD22 partial sequence peptide, and using 13 owl monkeys. The changes in the percentage of parasitism of P. falciparum in red blood cells in the peripheral blood of the owl monkeys were plotted.
The antigen which causes owl monkeys to acquire immunity is a chemically synthesized peptide antigen having a tandem structure in which four 22-residue peptides (AD22) are tandemly arranged, and has a structure represented by the following Structural Formula (A). Although Xaa in the Structural Formula (A) of the antigen is arbitrary, a Cys(Acm) residue, which is a Cys residue whose side chain is protected by an acetamidomethyl group, is used at this time.

T1 sequence (P00747 20-810 limits assumed): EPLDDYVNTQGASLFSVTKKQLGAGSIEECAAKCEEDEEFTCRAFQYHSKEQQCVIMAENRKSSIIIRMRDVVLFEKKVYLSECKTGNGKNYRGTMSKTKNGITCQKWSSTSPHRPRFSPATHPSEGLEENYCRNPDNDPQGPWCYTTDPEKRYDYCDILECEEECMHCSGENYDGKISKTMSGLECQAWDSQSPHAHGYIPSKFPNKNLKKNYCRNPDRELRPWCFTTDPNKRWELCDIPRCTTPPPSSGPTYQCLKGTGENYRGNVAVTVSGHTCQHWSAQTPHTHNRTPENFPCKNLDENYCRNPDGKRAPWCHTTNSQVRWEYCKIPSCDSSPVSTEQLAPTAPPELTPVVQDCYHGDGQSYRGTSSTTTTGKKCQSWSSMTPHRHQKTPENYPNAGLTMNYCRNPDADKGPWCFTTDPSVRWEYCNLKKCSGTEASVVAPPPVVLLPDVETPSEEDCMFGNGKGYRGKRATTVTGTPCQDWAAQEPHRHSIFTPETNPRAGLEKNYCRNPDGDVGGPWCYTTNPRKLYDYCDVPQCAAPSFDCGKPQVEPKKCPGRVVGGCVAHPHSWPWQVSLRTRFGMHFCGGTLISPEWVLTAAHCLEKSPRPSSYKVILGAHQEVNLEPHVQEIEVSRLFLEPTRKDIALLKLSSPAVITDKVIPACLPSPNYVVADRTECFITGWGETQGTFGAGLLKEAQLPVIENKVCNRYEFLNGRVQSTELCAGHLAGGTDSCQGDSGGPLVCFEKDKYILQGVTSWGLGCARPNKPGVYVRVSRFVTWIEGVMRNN

With “2: divided peptide from the 254th to 288th residue sequence of parasite enolase; SEQ ID NO: 11 (FYNSENKTYDK; listed as Plasmodium falciparum) [compound 2]” as the molecule, how does the “binding of peptide chains with plasminogen” value (from here on “binding of peptide chains”) (plasminogen [1]) read?
Its value is “binding of peptide chains with plasminogen was observed”.

“5: 10-residue divided peptide from the 254th to 288th residue sequence of parasite enolase; SEQ ID NO: 14 (PNNDKSLVKTK; listed as Plasmodium falciparum) [compound 5]” was tested. Which “reactivity with plasminogen (absorbance at 450 nm)” value (“reactivity with plasminogen” below) (plasminogen [2]) did it give?
Its value is “relatively high reactivity with plasminogen”.

Which results are given for “peptide 7: 25-residue peptide sequence from the 254th to 288th residues of parasite enolase; SEQ ID NO: 16 (VAASEFYNSENKTYDLDFKTPNNDK; listed as Plasmodium falciparum)”?
reactivity with plasminogen (absorbance at 450 nm) (plasminogen [2]): high reactivity with plasminogen; binding of peptide chains with plasminogen (plasminogen [1]): binding of peptide chains with plasminogen was observed

“peptide 8: 35-residue peptide sequence, 254th to 288th residues of parasite enolase; SEQ ID NO: 17 (VAASEFYNSENKTYDLDFKTPNNDKSLVKTGAQLVK; listed as Plasmodium falciparum)” was tested. Which “reactivity with plasminogen” value (plasminogen [2]) did it give?
The value was “high reactivity with plasminogen”.

And the “binding of peptide chains” value (plasminogen [1])?
Its value is “binding of peptide chains with plasminogen was observed”.

How did the “reactivity with plasminogen” value (plasminogen [2]) turn out when “peptide 3: 10-residue divided peptide of parasite enolase, NKT sequence then YDLDFKT sequence; SEQ ID NO: 12 (NKTYDLDFKTK; listed as Plasmodium falciparum)” was run?
Its value is “relatively high reactivity with plasminogen; also recorded: highest reactivity with plasminogen, among the 10-residue peptides”.

And the “binding of peptide chains” value (plasminogen [1])?
Its value is “binding of peptide chains with plasminogen was observed”.

B1: enolase derived from P. falciparum: P. falciparum-derived enolase, a glycolytic enzyme, used as vaccine antigen (protein, UniProt Q8IJN7 1-446, looked up)
Enolase: MAHVITRINAREILDSRGNPTVEVDLETNLGIFRAAVPSGASTGIYEALELRDNDKSRYLGKGVQKAIKNINEIIAPKLIGMNCTEQKKIDNLMVEELDGSKNEWGWSKSKLGANAILAISMAVCRAGAAANKVSLYKYLAQLAGKKSDQMVLPVPCLNVINGGSHAGNKLSFQEFMIVPVGAPSFKEALRYGAEVYHTLKSEIKKKYGIDATNVGDEGGFAPNILNANEALDLLVTAIKSAGYEGKVKIAMDVAASEFYNSENKTYDLDFKTPNNDKSLVKTGAQLVDLYIDLVKKYPIVSIEDPFDQDDWENYAKLTAAIGKDVQIVGDDLLVTNPTRITKALEKNACNALLLKVNQIGSITEAIEACLLSQKNNWGVMVSHRSGETEDVFIADLVVALRTGQIKTGAPCRSERNAKYNQLLRIEESLGNNAVFAGEKFRLQLN
How did the “percentage of parasitism of P. falciparum in red blood cells in the peripheral blood” value (P. falciparum) turn out when B1 was run?
Its value is “a rapid increase in the percentage of parasitism was in inhibited”.
